These are literature values, as cited in patent EP0997151B1, “Method for administering insulinotropic peptides” (priority 1998, dated 2006).

For this series the following is noted: pulmonary delivery; calculated, background.

As to parathyroid hormone (1-34), the “Absorption values for proteins delivered through the lungs” value was “fifteen”.
